Measured values as given in paper PMC8860586, “Vimentin binds to G-quadruplex repeats found at telomeres and gene promoters”.

Assays:
[1] = biological target: T1, Vimentin (Homo sapiens, UniProt P08670 2-466); assay: fluorescence anisotropy; 150 mM KCl, pH 8.4, 25 C; tetramer concentration, 1:1 fit; 5 mM Tris-HCl pH 8.4, 150 mM KCl; FA 5 nM DNA at 25 C; EMSA 500 nM DNA + 8 uM vimentin, 1 h room temperature, 1.5% agarose 0.5x TBE + 10 mM KCl, run at 4 C; conditions: protein: commercial; chain copies: 4; label: 5'-6-FAM; two adjacent G4s
[2] = biological target: T1, Vimentin; assay: EMSA; 150 mM KCl, pH 8.4; 5 mM Tris-HCl pH 8.4, 150 mM KCl; FA 5 nM DNA at 25 C; EMSA 500 nM DNA + 8 uM vimentin, 1 h room temperature, 1.5% agarose 0.5x TBE + 10 mM KCl, run at 4 C; conditions: protein: commercial, chain copies: 4
[3] = biological target: T1, Vimentin; assay: EMSA; no KCl, pH 8.4; 5 mM Tris-HCl pH 8.4, 150 mM KCl; FA 5 nM DNA at 25 C; EMSA 500 nM DNA + 8 uM vimentin, 1 h room temperature, 1.5% agarose 0.5x TBE + 10 mM KCl, run at 4 C; conditions: protein: commercial; chain copies: 4; unfolded single strand
[4] = biological target: T1, Vimentin; assay: EMSA; 150 mM KCl, pH 8.4; two complexes; 5 mM Tris-HCl pH 8.4, 150 mM KCl; FA 5 nM DNA at 25 C; EMSA 500 nM DNA + 8 uM vimentin, 1 h room temperature, 1.5% agarose 0.5x TBE + 10 mM KCl, run at 4 C; conditions: protein: commercial; chain copies: 4; three adjacent G4s
[5] = biological target: T1, Vimentin; assay: EMSA; 150 mM KCl, pH 8.4; Job plot max 0.1 DNA fraction, two tetramers per DNA; 5 mM Tris-HCl pH 8.4, 150 mM KCl; FA 5 nM DNA at 25 C; EMSA 500 nM DNA + 8 uM vimentin, 1 h room temperature, 1.5% agarose 0.5x TBE + 10 mM KCl, run at 4 C; conditions: protein: commercial; chain copies: 4; four adjacent G4s

T1 sequence (P08670 2-466): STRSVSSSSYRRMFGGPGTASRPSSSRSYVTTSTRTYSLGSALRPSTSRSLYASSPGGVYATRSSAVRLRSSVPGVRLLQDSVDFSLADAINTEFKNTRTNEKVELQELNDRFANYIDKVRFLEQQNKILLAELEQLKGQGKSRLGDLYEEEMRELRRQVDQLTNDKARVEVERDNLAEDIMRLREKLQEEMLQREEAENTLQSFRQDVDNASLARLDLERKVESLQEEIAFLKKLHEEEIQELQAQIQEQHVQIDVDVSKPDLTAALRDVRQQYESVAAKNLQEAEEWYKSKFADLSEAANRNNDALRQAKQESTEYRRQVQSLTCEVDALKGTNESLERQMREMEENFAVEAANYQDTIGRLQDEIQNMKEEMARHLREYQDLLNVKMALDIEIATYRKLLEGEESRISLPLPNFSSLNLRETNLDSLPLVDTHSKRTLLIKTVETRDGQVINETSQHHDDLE

B1: FAM-2TEL (structured_DNA)
DNA: TTAGGGTTAGGGTTAGGGTTAGGGTTAGGGTTAGGGTTAGGGTTAGGG
Kd [1]: 25.7 ± 2.4 nM

B2: KIT2KIT* (structured_DNA)
DNA: CGGGCGGGCGCGAGGGAGGGGAGGCGAGGAGGGGCGTGGCCGGC
binding result ([2]; two adjacent G4s): binds

B3: G-rich noG4 (ssDNA)
DNA: TGGCCCTGGTGGGCGGAGGCAAAGGGGGAGCCAGGGGCGGAGAAAGGGT
binding result [3]: binds

B4: KIT2 (structured_DNA)
DNA: CGGGCGGGCGCGAGGGAGGGG
binding result ([2]; single G4): no binding

B5: KIT* (structured_DNA)
DNA: GGCGAGGAGGGGCGTGGCCGGC
binding result ([2]; single G4): no binding

B6: ILPR (structured_DNA)
DNA: ACAGGGGTGTGGGGACAGGGGTGTGGGGACAGGGGTGTGGGGACAGGGGTGTGGGG
binding result ([2]; G4 repeat): binds

B7: hTERT (structured_DNA)
DNA: GGGGAGGGGCTGGGAGGGCCCGGAGGGGGCTGGGCCGGGGACCCGGGAGGGGTCGGGACGGGGCGGGG
binding result ([2]; G4 repeat): binds

B8: TEL (structured_DNA)
DNA: TTAGGGTTAGGGTTAGGGTTAGGG
binding result ([2]; single G4): no binding

B9: 3TEL (structured_DNA)
DNA: TTAGGGTTAGGGTTAGGGTTAGGGTTAGGGTTAGGGTTAGGGTTAGGGTTAGGGTTAGGGTTAGGGTTAGGG
binding result [4]: binds

B10: 4TEL (structured_DNA)
DNA: TTAGGGTTAGGGTTAGGGTTAGGGTTAGGGTTAGGGTTAGGGTTAGGGTTAGGGTTAGGGTTAGGGTTAGGGTTAGGGTTAGGGTTAGGGTTAGGG
binding result [5]: binds
